Laboratory results taken from PMC10787587.
Each block holds one substance with its values, some of them ahead of it.

Legend:
Test in all cases: SEC
[1] = target: human CYP11A1 (side-chain cleavage enzyme), N-terminally truncated and modified, C-terminally His-tagged (human) (UniProt P05108)
[2] = target: human CYP11B1 (11β-hydroxylase), N-terminally truncated and modified, C-terminally His-tagged (human) (UniProt P15538)
[3] = target: human CYP11B2 (aldosterone generating enzyme), N-terminally truncated and modified, C-terminally His-tagged (human) (UniProt P19099)

stoichiometry N [1]: 4
Substance: human CYP11A1 (side-chain cleavage enzyme), N-terminally truncated and modified, C-terminally His-tagged (from UniProt P05108 40-521)

stoichiometry N [2]: 4
Substance: human CYP11B1 (11β-hydroxylase), N-terminally truncated and modified, C-terminally His-tagged (from UniProt P15538 25-503) (enzyme)

stoichiometry N [3]: 4
Substance: human CYP11B2 (aldosterone generating enzyme), N-terminally truncated and modified, C-terminally His-tagged (from UniProt P19099 25-503)
